Experimental data from paper PMC9482650, “Quantitative fragmentomics allow affinity mapping of interactomes” (Nature Communications, 2022).

Assays:
Assay in all cases: holdup assay
Design in all cases: key: below the threshold = too weak to quantify, mostly under pKd 3.1 to 4
Conditions in all cases: plain residues with an end cap or a label only (N-terminal biotin on a linker: ado-ado)
AHNAK1, Q09666 = target: AHNAK1, Q09666
APBA3_1, O96018 = target: T1, APBA3_1, O96018
T1 sequence (O96018 389-490, limits assumed, looked up): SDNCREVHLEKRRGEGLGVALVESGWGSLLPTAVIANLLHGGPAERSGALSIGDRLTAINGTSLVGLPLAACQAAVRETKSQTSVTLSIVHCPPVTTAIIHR

DLG3_3, Q92796 = target: T2, DLG3_3, Q92796
T2 sequence (Q92796 374-475, limits assumed, looked up): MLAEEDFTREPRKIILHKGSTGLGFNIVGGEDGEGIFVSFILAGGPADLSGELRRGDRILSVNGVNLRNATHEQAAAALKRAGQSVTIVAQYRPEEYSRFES

DLG4_3, P78352 = target: DLG4_3, P78352
DLG4_3, P78352, sequence (P78352 306-403): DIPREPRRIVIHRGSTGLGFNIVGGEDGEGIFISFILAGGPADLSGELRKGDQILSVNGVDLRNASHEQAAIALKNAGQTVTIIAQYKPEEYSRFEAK

DLG5_1, Q8TDM6 = target: DLG5_1, Q8TDM6
DLG5_1, Q8TDM6, sequence (Q8TDM6 617-713): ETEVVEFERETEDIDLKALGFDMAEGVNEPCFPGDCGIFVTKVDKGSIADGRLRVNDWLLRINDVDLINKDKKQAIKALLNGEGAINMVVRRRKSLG

FRMPD2_3, Q68DX3 = target: FRMPD2_3, Q68DX3
FRMPD2_3, Q68DX3, sequence (Q68DX3 1073-1166): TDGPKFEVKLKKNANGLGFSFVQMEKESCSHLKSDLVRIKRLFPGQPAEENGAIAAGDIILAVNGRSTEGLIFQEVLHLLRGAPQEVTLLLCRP

FRMPD4, Q14CM0 = target: FRMPD4, Q14CM0
FRMPD4, Q14CM0, sequence (Q14CM0 67-160): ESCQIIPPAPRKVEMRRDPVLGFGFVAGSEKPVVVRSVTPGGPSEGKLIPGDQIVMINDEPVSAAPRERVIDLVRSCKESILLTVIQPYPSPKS

GIPC2, Q8TF65 = target: GIPC2, Q8TF65
GIPC2, Q8TF65, sequence (Q8TF65 112-203): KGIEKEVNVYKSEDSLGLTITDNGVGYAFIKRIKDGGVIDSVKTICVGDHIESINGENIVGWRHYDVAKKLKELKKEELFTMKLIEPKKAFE

GORASP1, Q9BQQ3 = target: GORASP1, Q9BQQ3
GORASP1, Q9BQQ3, sequence (Q9BQQ3 1-208): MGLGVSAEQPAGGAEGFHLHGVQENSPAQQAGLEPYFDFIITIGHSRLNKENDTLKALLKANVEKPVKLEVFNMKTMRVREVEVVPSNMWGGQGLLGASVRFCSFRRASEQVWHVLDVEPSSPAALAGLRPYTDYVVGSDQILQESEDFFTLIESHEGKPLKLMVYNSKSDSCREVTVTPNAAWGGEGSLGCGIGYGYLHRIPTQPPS

GRID2IP_2, A4D2P6 = target: GRID2IP_2, A4D2P6
GRID2IP_2, A4D2P6, sequence (A4D2P6 272-370): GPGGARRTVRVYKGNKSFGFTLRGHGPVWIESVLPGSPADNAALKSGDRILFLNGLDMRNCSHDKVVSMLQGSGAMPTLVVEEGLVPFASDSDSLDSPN

IL16_3, Q14005 = target: IL16_3, Q14005
IL16_3, Q14005, sequence (Q14005 1107-1207): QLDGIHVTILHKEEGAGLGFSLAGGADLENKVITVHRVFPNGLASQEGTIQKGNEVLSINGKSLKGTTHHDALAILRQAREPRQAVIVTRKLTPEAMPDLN

Inadl_1, Q8NI35 = target: Inadl_1, Q8NI35
Inadl_1, Q8NI35, sequence (Q8NI35 113-229): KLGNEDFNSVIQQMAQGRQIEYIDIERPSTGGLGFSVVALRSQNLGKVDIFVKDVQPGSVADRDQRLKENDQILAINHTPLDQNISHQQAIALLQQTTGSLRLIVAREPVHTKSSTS

Inadl_4, Q8NI35 = target: Inadl_4, Q8NI35
Inadl_4, Q8NI35, sequence (Q8NI35 547-651): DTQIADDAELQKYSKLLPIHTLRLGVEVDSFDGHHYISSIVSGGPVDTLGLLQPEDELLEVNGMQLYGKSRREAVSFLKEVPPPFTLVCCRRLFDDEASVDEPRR

Inadl_5, Q8NI35 = target: Inadl_5, Q8NI35
Inadl_5, Q8NI35, sequence (Q8NI35 673-780): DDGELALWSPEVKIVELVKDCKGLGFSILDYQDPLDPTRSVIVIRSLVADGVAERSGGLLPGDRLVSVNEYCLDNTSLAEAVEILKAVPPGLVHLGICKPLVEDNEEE

Inadl_9, Q8NI35 = target: Inadl_9, Q8NI35
Inadl_9, Q8NI35, sequence (Q8NI35 1530-1615): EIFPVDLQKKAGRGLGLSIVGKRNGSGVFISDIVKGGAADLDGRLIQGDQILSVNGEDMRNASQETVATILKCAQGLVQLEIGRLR

LIMK2, P53671 = target: LIMK2, P53671
LIMK2, P53671, sequence (P53671 143-248): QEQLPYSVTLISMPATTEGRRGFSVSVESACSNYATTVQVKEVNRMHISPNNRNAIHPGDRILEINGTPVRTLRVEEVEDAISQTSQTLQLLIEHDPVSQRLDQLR

LNX1_3, Q8TBB1 = target: LNX1_3, Q8TBB1
LNX1_3, Q8TBB1, sequence (Q8TBB1 500-596): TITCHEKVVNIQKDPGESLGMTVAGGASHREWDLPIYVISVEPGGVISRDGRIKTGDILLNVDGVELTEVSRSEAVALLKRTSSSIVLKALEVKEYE

LNX2_3, Q8N448 = target: T3, LNX2_3, Q8N448
T3 sequence (Q8N448 463-564, limits assumed, looked up): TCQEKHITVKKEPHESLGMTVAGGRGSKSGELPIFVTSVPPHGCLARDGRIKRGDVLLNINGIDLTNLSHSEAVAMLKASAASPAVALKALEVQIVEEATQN

LRRC7, Q96NW7 = target: T4, LRRC7, Q96NW7
T4 sequence (Q96NW7 1440-1537, limits assumed, looked up): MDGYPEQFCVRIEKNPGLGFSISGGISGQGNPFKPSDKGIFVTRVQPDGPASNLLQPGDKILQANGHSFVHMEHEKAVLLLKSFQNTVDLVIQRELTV

MAGI1_2, Q96QZ7 = target: MAGI1_2, Q96QZ7
MAGI1_2, Q96QZ7, sequence (Q96QZ7 456-580): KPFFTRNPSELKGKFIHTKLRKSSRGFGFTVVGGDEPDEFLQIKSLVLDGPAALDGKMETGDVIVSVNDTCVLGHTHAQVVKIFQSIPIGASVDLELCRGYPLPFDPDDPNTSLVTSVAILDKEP

NHERF3_4, Q5T2W1 = target: T5, NHERF3_4, Q5T2W1
T5 sequence (Q5T2W1 373-468, limits assumed, looked up): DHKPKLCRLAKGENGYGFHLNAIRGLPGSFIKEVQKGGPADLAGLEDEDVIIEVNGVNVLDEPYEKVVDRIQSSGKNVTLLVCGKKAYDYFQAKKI

NHERF4_4, Q86UT5 = target: NHERF4_4, Q86UT5
NHERF4_4, Q86UT5, sequence (Q86UT5 464-550): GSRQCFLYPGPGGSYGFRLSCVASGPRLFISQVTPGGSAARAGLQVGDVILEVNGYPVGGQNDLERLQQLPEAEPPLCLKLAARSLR

NOS1, P29475 = target: NOS1, P29475
NOS1, P29475, sequence (P29475 9-101): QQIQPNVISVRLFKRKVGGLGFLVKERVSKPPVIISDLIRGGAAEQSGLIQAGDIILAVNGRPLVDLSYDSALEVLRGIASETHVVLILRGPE

PDZD2_2, O15018 = target: T6, PDZD2_2, O15018
T6 sequence (O15018 329-429, limits assumed, looked up): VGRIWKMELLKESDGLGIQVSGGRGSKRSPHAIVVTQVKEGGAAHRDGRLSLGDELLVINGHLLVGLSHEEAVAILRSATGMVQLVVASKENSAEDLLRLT

PDZRN3_1, Q9UPQ7 = target: T7, PDZRN3_1, Q9UPQ7
T7 sequence (Q9UPQ7 244-349, limits assumed, looked up): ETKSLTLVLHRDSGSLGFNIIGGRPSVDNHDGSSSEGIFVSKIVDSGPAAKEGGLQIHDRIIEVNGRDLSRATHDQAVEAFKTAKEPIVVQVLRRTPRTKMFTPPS

SHANK1, Q9Y566 = target: T8, SHANK1, Q9Y566
T8 sequence (Q9Y566 658-767, limits assumed, looked up): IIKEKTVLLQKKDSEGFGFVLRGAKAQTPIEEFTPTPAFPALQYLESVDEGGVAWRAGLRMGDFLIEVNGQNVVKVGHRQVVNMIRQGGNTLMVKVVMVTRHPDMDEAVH

SIPA1L2, Q9P2F8 = target: T9, SIPA1L2, Q9P2F8
T9 sequence (Q9P2F8 945-1036, limits assumed, looked up): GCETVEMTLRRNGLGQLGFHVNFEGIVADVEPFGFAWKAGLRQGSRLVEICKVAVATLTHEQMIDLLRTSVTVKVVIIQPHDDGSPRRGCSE

SNX27, Q96L92 = target: SNX27, Q96L92
TJP1_3, Q07157 = target: TJP1_3, Q07157
TJP1_3, Q07157, sequence (Q07157 416-512): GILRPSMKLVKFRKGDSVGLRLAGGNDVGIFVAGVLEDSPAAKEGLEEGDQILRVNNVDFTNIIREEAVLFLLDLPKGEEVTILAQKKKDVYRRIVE

Measured: pKd

AHNAK1, Q09666, sequence (Q09666 4-100): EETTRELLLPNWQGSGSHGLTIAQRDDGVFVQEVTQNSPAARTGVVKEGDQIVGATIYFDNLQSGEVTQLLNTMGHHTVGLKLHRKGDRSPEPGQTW

DSATVRTYSC [PPFIA1, Q13136]
3.49: GRID2IP_2, A4D2P6
3.8: FRMPD4, Q14CM0
3.7: PDZD2_2, O15018
below the threshold: all other assays above

PASAKGPLGV [CLDN19, Q8N6F1]
below the threshold: all assays above

PAPGQHTTQI [STK16, O75716]
3.91: PDZD2_2, O15018
3.69: NOS1, P29475
4.27: SNX27, Q96L92
3.98: GRID2IP_2, A4D2P6
3.75: SHANK1, Q9Y566
below the threshold: all other assays above
